# From PMC13086964, “USP7 deubiquitinase stabilizes FAN1 to support DNA crosslink repair and suppress CAG repeat expansion” (Nature Communications, 2026)
# Target: USP7 TRAF domain (residues 2-207), biotinylated (UniProt Q93009)
# Assay: fluorescence polarisation
# Settings: read at the highest USP7-TRAF concentration, about 190 µM; parent: est. 100; read off a plot
# Sequence of USP7 TRAF domain (residues 2-207), biotinylated (Q93009 2-207): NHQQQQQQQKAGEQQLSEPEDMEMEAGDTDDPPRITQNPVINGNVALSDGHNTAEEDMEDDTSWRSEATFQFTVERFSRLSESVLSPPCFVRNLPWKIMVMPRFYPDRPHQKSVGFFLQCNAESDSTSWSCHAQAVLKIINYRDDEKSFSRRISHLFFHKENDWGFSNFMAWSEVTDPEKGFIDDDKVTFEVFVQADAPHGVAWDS
row,Substance,response (% (normalized FP))
1,"FITC-labelled FAN1-derived 8mer peptide, wild-type (181-PQSS-184 region) P181A",100
2,"FITC-labelled FAN1-derived 8mer peptide, wild-type (181-PQSS-184 region) Q182A",99
3,"FITC-labelled FAN1-derived 8mer peptide, wild-type (181-PQSS-184 region) S184A",30
